# Values of other authors, collected in patent US5747454A, “Chromogranin peptides” (Albert Einstein College of Medicine of Yeshiva University, priority 1995, dated 1998).
# System: primary cultures of parathyroid cells
molecule,measurement,value
"Chromogranin A: large, acidic protein found in the secretory granules of endocrine and neuroendocrine tissues including the parathyroid (protein, UniProt P10645 19-457, looked up) Chromogranin-A: LPVNSPMNKGDTEVMKCIVEVISDTLSKPSPMPVSQECFETLRGDERILSILRHQNLLKELQDLALQGAKERAHQQKKHSGFEDELSEVLENQSSQAELKEAVEEPSSKDVMEKREDSKEAEKSGEATDGARPQALPEPMQESKAEGNNQAPGEEEEEEEEATNTHPPASLPSQKYPGPQAEGDSEGLSQGLVDREKGLSAEPGWQAKREEEEEEEEEAEAGEEAVPEEEGPTVVLNPHPSLGYKEIRKGESRSEALAVDGAGKPGAEEAQDPEGKGEQEHSQQKEEEEEMAVVPQGLFRGGKSGELEQEEERLSKEWEDSKRWSKMDQLAKELTAEKRLEGQEEEEDNRDSSMKLSFRARAYGFRGPGPQLRRGWRPSSREDSLEAGLPLQVRGYPEEKKEEEGSANRRPEDQELESLSAIEAELEKVAHQLQALRRG",inhibition of parathyroid hormone secretion,inhibit parathyroid hormone secretion
